Read-outs that look alike come from different tables or passages of the source.
Assays:
Assay in all cases: cell-based or functional assay
[1] = molecular target: T1, cell surface IL-6 receptor on TF-1 cells (UniProt P08887 20-468, limits assumed)
T1 sequence (looked up): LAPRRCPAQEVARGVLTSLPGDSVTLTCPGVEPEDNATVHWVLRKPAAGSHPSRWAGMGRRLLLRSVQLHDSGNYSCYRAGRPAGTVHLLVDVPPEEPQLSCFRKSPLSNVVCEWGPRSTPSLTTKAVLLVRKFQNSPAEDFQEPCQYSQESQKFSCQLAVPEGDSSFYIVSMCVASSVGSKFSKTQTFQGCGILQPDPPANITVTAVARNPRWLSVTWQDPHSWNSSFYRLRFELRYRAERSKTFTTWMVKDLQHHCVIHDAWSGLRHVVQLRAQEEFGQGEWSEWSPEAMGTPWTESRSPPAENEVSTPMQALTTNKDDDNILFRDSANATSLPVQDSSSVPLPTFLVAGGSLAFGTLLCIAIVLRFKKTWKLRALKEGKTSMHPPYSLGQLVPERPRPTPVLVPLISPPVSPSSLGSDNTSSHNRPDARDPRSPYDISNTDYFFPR

[2] = molecular target: T2, human IL-6 receptor alpha (hIL-6Rα) (human, UniProt P08887 20-358, limits assumed)
T2 sequence (looked up): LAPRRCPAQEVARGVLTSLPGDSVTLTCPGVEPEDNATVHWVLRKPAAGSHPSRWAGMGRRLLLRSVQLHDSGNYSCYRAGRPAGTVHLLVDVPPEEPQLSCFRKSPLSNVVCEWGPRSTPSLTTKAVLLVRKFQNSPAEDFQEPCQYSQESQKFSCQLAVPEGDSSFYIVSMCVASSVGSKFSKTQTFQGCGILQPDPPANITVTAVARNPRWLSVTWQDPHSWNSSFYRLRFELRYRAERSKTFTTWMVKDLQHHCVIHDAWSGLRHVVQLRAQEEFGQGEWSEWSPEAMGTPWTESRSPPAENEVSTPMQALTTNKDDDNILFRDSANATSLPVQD

[3] = molecular target: T1, cell surface IL-6 receptor on TF-1 cells; remark: listed apart in the source

- IC50 blocking the IL-6 dependent growth of TF-1 cells [1]: 0.3 nM
- IC50, inhibition of IL-6 trans-signaling dependent MCP-1 secretion by HUVECs [2]: ~5 nM
- IC50 blocking the IL-6 dependent growth of TF-1 cells [3]: 0.41 nM
B1: tocilizumab (antibody, V domains shown)
VH: QVQLQESGPGLVRPSQTLSLTCTVSGYSITSDHAWSWVRQPPGRGLEWIGYISYSGITTYNPSLKSRVTMLRDTSKNQFSLRLSSVTAADTAVYYCARSLARTTAMDYWGQGSLVTVSS
VL: DIQMTQSPSSLSASVGDRVTITCRASQDISSYLNWYQQKPGKAPKLLIYYTSRLHSGVPSRFSGSGSGTDFTFTISSLQPEDIATYYCQQGNTLPYTFGQGTKVEIKR
